Reference: the RNAGym collection of RNA variant scans (doi:10.1021/acssynbio.7b00057)

B1: Pistol ribozyme (parent)
chain: GGGUCGUUGUUCCAUAAUCGCGUGGAUAUGGCACGCAAGUUUCUACCGGGCACCGUAAAUGUCCGACUGGAGCCGUUCGGGCGGCUAUAAACAGACCUCAGGCCCGAAGCGUGGCGGCACCUGCCGCCGGUGGUAAAAAAGAUCGGAAGAGCACACGUCU

Variants of: B1
Experiment: aptazyme ON/OFF ratio, guanine; higher = stronger switching; co-transcriptional cleavage with and without guanine
With U7C U8A G9C U11C C12A C13U the “aptazyme ON/OFF ratio” value was 1.08. With U7C U8A G9C U11C C12A C13G the “aptazyme ON/OFF ratio” value was 1.07. In the case of U7C U8A G9C U11C C12A C13A, the “aptazyme ON/OFF ratio” value is reported as 1.04. In the case of U7C U8A G9U U10A U11A C12U C13A, the “aptazyme ON/OFF ratio” value is reported as 1.2. With U7C U8A G9U U10A U11A C12U C13U the “aptazyme ON/OFF ratio” value was 1.36. For U7C U8A G9U U10A U11A C12U C13G, the “aptazyme ON/OFF ratio” value was 1.21. For U7C U8A G9C U10A U11G C12U C13U, the “aptazyme ON/OFF ratio” value was 1.13. For U7C U8A G9C U10A U11G C12U C13G, the “aptazyme ON/OFF ratio” value was 1.08. For U7C U8A G9C U10A U11G C12U C13A, the “aptazyme ON/OFF ratio” value was 1.1. For U7C U8A G9U U10A U11A C12G, the “aptazyme ON/OFF ratio” value was 1.17. With U7C U8A G9U U10A U11A C12A the “aptazyme ON/OFF ratio” value was 1.1. In the case of U7C U8A G9U U10A U11A C12U, the “aptazyme ON/OFF ratio” value is reported as 1.14. With U7C U8A G9U U10C U11C C12A C13U the “aptazyme ON/OFF ratio” value was 1.12. In the case of U7C U8A G9U U10C U11C C12A C13G, the “aptazyme ON/OFF ratio” value is reported as 1.29. With U7C U8A G9U U10C U11C C12A C13A the “aptazyme ON/OFF ratio” value was 1.06. With U7C U8A G9C U10A U11A C12U C13G the “aptazyme ON/OFF ratio” value was 1.1. With U7C U8A G9C U10A U11A C12U C13U the “aptazyme ON/OFF ratio” value was 1.11. For U7C U8A G9C U10A U11A C12U C13A, the “aptazyme ON/OFF ratio” value was 1.05. For U7C U8A G9U U10C U11A C13G, the “aptazyme ON/OFF ratio” value was 1.07. With U7C U8A G9U U10C U11A C13A the “aptazyme ON/OFF ratio” value was 1.15. With U7C U8A G9U U10C U11A C13U the “aptazyme ON/OFF ratio” value was 1.17. With U7C U8A G9U U10A U11G C12U C13U the “aptazyme ON/OFF ratio” value was 1.31. In the case of U7C U8A G9U U10A U11G C12U C13G, the “aptazyme ON/OFF ratio” value is reported as 1.16. In the case of U7C U8A G9U U10A U11G C12U C13A, the “aptazyme ON/OFF ratio” value is reported as 1.16. For U7C U8A G9C U10C C12U C13A, the “aptazyme ON/OFF ratio” value was 1.06. With U7C U8A G9C U10C C12U C13G the “aptazyme ON/OFF ratio” value was 1.06. In the case of U7C U8A G9C U10C C12U C13U, the “aptazyme ON/OFF ratio” value is reported as 1.05. In the case of U7C U8A G9C U10G U11C C12G C13U, the “aptazyme ON/OFF ratio” value is reported as 1.19. For U7C U8A G9C U10G U11C C12G C13G, the “aptazyme ON/OFF ratio” value was 1.23. For U7C U8A G9C U10G U11C C12G C13A, the “aptazyme ON/OFF ratio” value was 1.25. With U7C U8A G9C U10G U11A C12A C13A the “aptazyme ON/OFF ratio” value was 1.17. In the case of U7C U8A G9C U10G U11A C12A C13G, the “aptazyme ON/OFF ratio” value is reported as 1.13. With U7C U8A G9C U10G U11A C12A C13U the “aptazyme ON/OFF ratio” value was 1.33. For U7C U8A G9C U11C C12G, the “aptazyme ON/OFF ratio” value was 1.11. With U7C U8A G9C U11C C12U the “aptazyme ON/OFF ratio” value was 1.14. In the case of U7C U8A G9C U11C C12A, the “aptazyme ON/OFF ratio” value is reported as 1.11. In the case of U7C U8A G9C U10G C12U C13U, the “aptazyme ON/OFF ratio” value is reported as 1.26. For U7C U8A G9C U10G C12U C13A, the “aptazyme ON/OFF ratio” value was 1.18. With U7C U8A G9C U10G C12U C13G the “aptazyme ON/OFF ratio” value was 1.17. In the case of U7C U8A G9C U10G C12A C13G, the “aptazyme ON/OFF ratio” value is reported as 1.09. In the case of U7C U8A G9C U10G C12A C13U, the “aptazyme ON/OFF ratio” value is reported as 1.13. For U7C U8A G9C U10G C12A C13A, the “aptazyme ON/OFF ratio” value was 1.23. For U7C U8A G9U U10C U11A C12U C13U, the “aptazyme ON/OFF ratio” value was 1.15. For U7C U8A G9U U10C U11A C12U C13G, the “aptazyme ON/OFF ratio” value was 1.09. With U7C U8A G9U U10C U11A C12U C13A the “aptazyme ON/OFF ratio” value was 1.11. In the case of U7C U8A G9U U10C U11A C12G C13G, the “aptazyme ON/OFF ratio” value is reported as 1.09. For U7C U8A G9U U10C U11A C12G C13U, the “aptazyme ON/OFF ratio” value was 1.13. In the case of U7C U8A G9U U10C U11A C12G C13A, the “aptazyme ON/OFF ratio” value is reported as 1.1. In the case of U7C U8A G9C U10C U11C C12A C13A, the “aptazyme ON/OFF ratio” value is reported as 1.04. With U7C U8A G9C U10C U11C C12A C13U the “aptazyme ON/OFF ratio” value was 1.05. With U7C U8A G9C U10C U11C C12A C13G the “aptazyme ON/OFF ratio” value was 1. For U7C U8A G9U U10A U11A C12A C13G, the “aptazyme ON/OFF ratio” value was 1.18. In the case of U7C U8A G9U U10A U11A C12A C13A, the “aptazyme ON/OFF ratio” value is reported as 1.13. In the case of U7C U8A G9U U10A U11A C12A C13U, the “aptazyme ON/OFF ratio” value is reported as 1.19. For U7C U8A G9C U10A U11C, the “aptazyme ON/OFF ratio” value was 1.05. With U7C U8A G9C U10A U11G the “aptazyme ON/OFF ratio” value was 1.29. For U7C U8A G9C U10C U11A C13U, the “aptazyme ON/OFF ratio” value was 1.13. For U7C U8A G9C U10C U11A C13G, the “aptazyme ON/OFF ratio” value was 1.2. For U7C U8A G9C U10C U11A C13A, the “aptazyme ON/OFF ratio” value was 1.09. In the case of U7C U8A G9U U10C U11A C12A, the “aptazyme ON/OFF ratio” value is reported as 1.13. In the case of U7C U8A G9U U10C U11A C12G, the “aptazyme ON/OFF ratio” value is reported as 1.12. In the case of U7C U8A G9U U10C U11A C12U, the “aptazyme ON/OFF ratio” value is reported as 1.12. In the case of U7C U8A G9U U10A U11C C12A C13U, the “aptazyme ON/OFF ratio” value is reported as 1.22. With U7C U8A G9U U10A U11C C12A C13G the “aptazyme ON/OFF ratio” value was 1.17. With U7C U8A G9U U10A U11C C12A C13A the “aptazyme ON/OFF ratio” value was 1.18. With U7C U8A G9C U11C the “aptazyme ON/OFF ratio” value was 1.04. In the case of U7C U8A G9C U11G, the “aptazyme ON/OFF ratio” value is reported as 1.13. For U7C U8A G9C U11A, the “aptazyme ON/OFF ratio” value was 1.05. With U7C U8A G9C U10C U11C C13G the “aptazyme ON/OFF ratio” value was 1. For U7C U8A G9C U10C U11C C13A, the “aptazyme ON/OFF ratio” value was 1.01. In the case of U7C U8A G9C U10C U11C C13U, the “aptazyme ON/OFF ratio” value is reported as 1.03. In the case of U7C U8A G9U U10C U11C C12G C13A, the “aptazyme ON/OFF ratio” value is reported as 1.09. With U7C U8A G9C U10C U11C C12G the “aptazyme ON/OFF ratio” value was 1.04. With U7C U8A G9C U10C U11C C12A the “aptazyme ON/OFF ratio” value was 1.06. In the case of U7C U8A G9C U10C U11C C12U, the “aptazyme ON/OFF ratio” value is reported as 1.02. In the case of U7C U8A G9U U10A U11C C12G, the “aptazyme ON/OFF ratio” value is reported as 1.28. In the case of U7C U8A G9U U10A U11C C12U, the “aptazyme ON/OFF ratio” value is reported as 1.07. In the case of U7C U8A G9U U10A U11C C12A, the “aptazyme ON/OFF ratio” value is reported as 1.15. In the case of U7C U8A G9C U11G C12G C13A, the “aptazyme ON/OFF ratio” value is reported as 1.1. With U7C U8A G9C U11G C12G C13U the “aptazyme ON/OFF ratio” value was 1.05. In the case of U7C U8A G9C U11G C12G C13G, the “aptazyme ON/OFF ratio” value is reported as 1.07. With U7C U8A G9U U10C C12G C13A the “aptazyme ON/OFF ratio” value was 1.18. In the case of U7C U8A G9U U10C C12G C13G, the “aptazyme ON/OFF ratio” value is reported as 1.28.
